“And” between values parts separate entries of the source, which are not always exact repeats. Equal entries are not always repeated.

For experiment [1], the target named is K145E SAASoti (Stylocoeniella armata). In words: SEC; Superdex 200 10/300 GL, 20 mM Tris-HCl 150 mM NaCl pH 7.5, 0.5 ml/min, absorbance at 280 and 509 nm (the legend of Fig. 2 gives Tris-HCl 100 mM, CaCl2 10 mM, pH 7.6); wild type also run with DTT. In general terms: SEC sorts molecules by how far they enter the pores of the column.
The target in experiment [2] is K145N SAASoti (Stylocoeniella armata). In words: two-focus fluorescence correlation spectroscopy (2fFCS); diffusion coefficient; 10 mM phosphate buffer, 150 mM NaCl pH 7.4, ~10^-9 M protein, 25 °C.
Experiment [3] has the same target. In words: SEC; Superdex 200 10/300 GL, 20 mM Tris-HCl 150 mM NaCl pH 7.5, 0.5 ml/min, absorbance at 280 and 509 nm (the legend of Fig. 2 gives Tris-HCl 100 mM, CaCl2 10 mM, pH 7.6); wild type also run with DTT.
Experiment [4] deals with V127T SAASoti (Stylocoeniella armata). In words: SEC; V127T SAASoti at high concentration (0.22 mM).
The target in experiment [5] is wild type SAASoti (Stylocoeniella armata). In words: SEC; Superdex 200 10/300 GL, 20 mM Tris-HCl 150 mM NaCl pH 7.5, 0.5 ml/min, absorbance at 280 and 509 nm (the legend of Fig. 2 gives Tris-HCl 100 mM, CaCl2 10 mM, pH 7.6); wild type also run with DTT.
The target in experiment [6] is K149E SAASoti (Stylocoeniella armata). In words: two-focus fluorescence correlation spectroscopy (2fFCS); diffusion coefficient; 10 mM phosphate buffer, 150 mM NaCl pH 7.4, ~10^-9 M protein, 25 °C.
For experiment [7] the target is unchanged. In words: SEC; Superdex 200 10/300 GL, 20 mM Tris-HCl 150 mM NaCl pH 7.5, 0.5 ml/min, absorbance at 280 and 509 nm (the legend of Fig. 2 gives Tris-HCl 100 mM, CaCl2 10 mM, pH 7.6); wild type also run with DTT.
Experiment [8] concerns the target K149N SAASoti (Stylocoeniella armata). In words: two-focus fluorescence correlation spectroscopy (2fFCS); diffusion coefficient; 10 mM phosphate buffer, 150 mM NaCl pH 7.4, ~10^-9 M protein, 25 °C.
The target is the same in experiment [9]. In words: SEC; Superdex 200 10/300 GL, 20 mM Tris-HCl 150 mM NaCl pH 7.5, 0.5 ml/min, absorbance at 280 and 509 nm (the legend of Fig. 2 gives Tris-HCl 100 mM, CaCl2 10 mM, pH 7.6); wild type also run with DTT.

What is called stoichiometry N is a count of units in the complex or per binding partner. K145E SAASoti (natural protein) came in with a stoichiometry N in [1] of 4.
In the case of K145N SAASoti (natural protein), the stoichiometry N in [2] and in experiment [3] was 4 throughout.
V127T SAASoti (natural protein) gave a stoichiometry N in experiment [4] of 2.
Take wild type SAASoti (natural protein): the stoichiometry N in [5] was 4 and 8.
On to K149E SAASoti (natural protein), for which the stoichiometry N in [6] and in experiment [7] was 4 in each case.
Turning to K149N SAASoti (natural protein), the stoichiometry N in [8] and in experiment [9] was 4 in each case.

These data come from PMC6195611.
